Experimental findings from patent US20190359687A1 (Bayer, published 2019) are described below.

In assay [1] the target is T1, Cynomolgus monkey glycophorin A on Cynomolgus monkey red blood cells (Cynomolgus monkey).
T1 construct: whole, on cells; also called Cyno RBC; Cyno GPA
Briefly: FACS, Cyno RBC. For orientation: A flow cytometer gives signals particle by particle.
Method: (§1) Hybridomas were generated from the spleen cells of these mice and these hybriomas were screened first by fluorescence activated cell sorting (FACS) against isolated human and monkey (Cynomolgus monkey and Rhesus monkey) red blood cells (RBC) and then by ELISA against purified human glycophorin A protein (GPA). Isolated RBC were prepared from whole blood from normal human, cynomolgus monkey, and beagle dog, were anticoagulant with sodium heparin (Bioreclamation). 2-3 mL of whole blood was loaded gently on the top of 3 mL Ficoll Plus (Sigma Aldrich) then centrifuged at 500 g for 20 min at room temperature (RT). The RBC pellets were washed 3 times with 10 mL of PBS, and centrifuge 400 g for 10 min at RT. RBC pellets were re-suspended in PBS at the same total volume as the original blood volume to achieve the same RBC cell density as in whole blood and stored at 4° C. Purified human glycophorin A protein was obtained from Sigma Aldrich and coated on ELISA plates at 2 ug/ml. Binding of antibodies to human GPA was detected using appropriate secondary antibodies using methods well known in the art.

The target in assay [2] is T2, purified human glycophorin A protein (Sigma, cat # G5017) (human, UniProt P02724 20-150).
T2 construct: mature; also called Sigma hGPA; Sigma GPA
T2 sequence (looked up): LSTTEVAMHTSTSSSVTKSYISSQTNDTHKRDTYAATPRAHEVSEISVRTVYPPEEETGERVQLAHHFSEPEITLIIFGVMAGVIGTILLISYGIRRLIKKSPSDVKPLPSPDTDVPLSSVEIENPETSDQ
Briefly: ELISA, hGPA. (An ELISA detects its analyte on a solid surface through an enzyme-linked reagent.)
Method: as §1

Assay [3] deals with T3, human glycophorin A in the red blood cell membrane (human, UniProt P02724 20-150).
T3 construct: whole, on cells; used for intact RBC, isolated RBC membranes and transfected cells; the assay field tells which; also called GPA; hGPA
T3 sequence (looked up): T2 sequence (looked up)
Briefly: FACS, hu RBC.
Method: as §1

Assay [4] deals with T4, glycophorin A peptide GP5 (human, biotin at the N-terminus).
T4 construct: Residues 42 to 61 of the human glycophorin A extracellular domain
T4 peptide: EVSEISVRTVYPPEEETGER
As to the kind of experiment: Octet, GP5 peptide on the probe, fusion protein in solution, 1:1 fit. Background: BLI is a label-free optical method that tracks binding on a fibre tip over time.

Assay [5] concerns the target T5, Cynomolgus monkey glycophorin A on Cynomolgus monkey red blood cells (Cynomolgus monkey).
T5 construct: whole, on cells; also called Cyno GPA; Cyno RBC
Briefly: partition to Cyno RBC, human HemA plasma, 120 min.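 Further: FVIII fusion spiked at 1 IU/mL into RBC suspension at whole-blood density.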
Method: (§2) To evaluate partition to cynomolgus monkey or human red blood cells, whole blood was draw from Cynomolgus monkey or normal human volunteers in to anticoagulant with 4% sodium citrate (Sigma, St Louis, Mo.). The red blood cells were purified by layering the whole blood on to ficoll followed by low speed centrifugation. The supernatant containing plasma, platelets and white blood cells was discarded and the red blood cell pellet was resuspended in 10 pellet volumes of PBS (50 mM Phosphate buffer, pH7.4, 150 mM NaCl). The red blood cells were then pelleted by slow speed centrifugation and the red blood cells re-suspended in 10 volumes of PBS. This washing step was repeated 4 more times and the red blood cells finally resuspended in a volume of plasma from Hemophilia patients with less than 1% of normal levels of FVIII (GeorgeKing Bio-Medical, Overland Park, Kans.) to generate a total volume equal to the initial blood volume such that the RBC density was equal to that of normal whole blood. BDD and RBC targeted FVIII molecules were then spiked into RBC suspension in HemA plasma at 1 IU/mL, and incubated at room temperature for 2-3 hours with gentle rotation. […] An additional control was performed in which BDD or RBC targeted FVIII molecules were added at 11U/ml into the same human hemophilia A plasma and incubated for 5 minutes and 180 mins. These samples were used to determine the input FVIII activity in the presence of plasma which was used to calculate the percentage of the molecule that was bound to RBC. All plasma samples were then assayed together for FVIII activity using the Coatest SP assay (DiaPharma, Columbus, Ohio). The assay was performed following the manufacturer's instructions in a 96-well plate format. […] The plate was incubated at 37° C. for 10 minutes with shaking between each reagent addition.

Assay [6] addresses T5, Cynomolgus monkey glycophorin A on …. As to the kind of experiment: partition to Cyno RBC, human HemA plasma, 60 min.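 Further: FVIII fusion spiked at 1 IU/mL into RBC suspension at whole-blood density.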
Method: as §2
Assay [7] has the same target. Briefly: partition to Cyno RBC, human HemA plasma, 15 min.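 Further: FVIII fusion spiked at 1 IU/mL into RBC suspension at whole-blood density.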
Method: as §2
Assay [8] deals with T6, human glycophorin A on human red blood cells (human, UniProt P02724 20-150).
T6 construct: whole, on cells; also called human GPA; huGPA
T6 sequence (looked up): T2 sequence (looked up)
As to the kind of experiment: partition to human RBC, vWF deficient plasma, 120 min.

The target of assay [9] is T5, Cynomolgus monkey glycophorin A on …. As to the kind of experiment: partition to Cyno RBC, human HemA plasma, 5 min.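 Further: FVIII fusion spiked at 1 IU/mL into RBC suspension at whole-blood density.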
For assay [10], the target named is T6, human glycophorin A on human red blood …. Briefly: partition to human RBC, vWF deficient plasma, 15 min.
Assay [11] deals with T5, Cynomolgus monkey glycophorin A on …. Briefly: partition to Cyno RBC, human HemA plasma, 1 min.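 Further: FVIII fusion spiked at 1 IU/mL into RBC suspension at whole-blood density.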
Assay [12] addresses T6, human glycophorin A on human red blood …. Briefly: partition to human RBC, vWF deficient plasma, 1 min.
Assay [13] has the same target. Briefly: partition to human RBC, vWF deficient plasma, 5 min.
Assay [14] addresses T5, Cynomolgus monkey glycophorin A on …. As to the kind of experiment: partition to Cyno RBC, human HemA plasma, 30 min.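 Further: FVIII fusion spiked at 1 IU/mL into RBC suspension at whole-blood density.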
Assay [15] has as its target T6, human glycophorin A on human red blood …. Briefly: partition to human RBC, vWF deficient plasma, 30 min.
Assay [16] shares this target. As to the kind of experiment: partition to human RBC, vWF deficient plasma, 60 min.

B1: 1H5B4/H12 (antibody, V domains shown)
VH: QVQLQQSGAELARPGASVKMSCKASGYTFTSYSIHWIKQRPGQSLEWIGYINPNSDYANYNQKFKDKATLTTDKSSTTAYMQLSSLTTDDSAVYYCQTGTRDYWGQGTTLTVSS
VL: DIVMTQSPSSLSVSAGEKVTMSCKSSQSLLNSGNQKNYLAWYQQKPGQPPKLLIYGASTRESGVPDRFTGSGSGTDFTLTISSVQAEDLAVYYCQNDHSYPYTFGGGTKLEIK
notes: as m8
As usually defined, the EC50 is the concentration needed to bring the measured effect to its halfway point. As to B1, the FACS signal is 0.93 relative flourescence units in assay [1] and 1.05 relative flourescence units in assay [3]. In addition, in [2], the EC50 came out at 0.403 nM.

B2: TPP-8798 FVIII-scFv fusion protein (other)
chain: DIQLTQSPSFLSASVGDRVTITCRASSSVRYIYWFQQKPGKAPKLLIYATSFRQSGVPSRFSGSGSGTEYTLTISSLQPEDFATYYCHQRNSFPYTFGQGTKLEIKGGGGSGGGGSGGGGSGGGGSEVQLVQSGAEVKKPGASVKVSCKASGYTFTTYAIHWVRQAPGQGLEWMGYINPSSGYTRYNPKFKGRVTMTRDKSTSTAYMELRSLRSDDTAVYYCWTGTRDYWGQGTTVTVSSGGGSGGGGSGLVPRGSGGGSGGGGSGATRRYYLGAVELSWDYMQSDLGELPVDARFPPRVPKSFPFNTSVVYKKTLFVEFTDHLFNIAKPRPPWMGLLGPTIQAEVYDTVVITLKNMASHPVSLHAVGVSYWKASEGAEYDDQTSQREKEDDKVFPGGSHTYVWQVLKENGPMASDPLCLTYSYLSHVDLVKDLNSGLIGALLVCREGSLAKEKTQTLHKFILLFAVFDEGKSWHSETKNSLMQDRDAASARAWPKMHTVNGYVNRSLPGLIGCHRKSVYWHVIGMGTTPEVHSIFLEGHTFLVRNHRQASLEISPITFLTAQTLLMDLGQFLLFCHISSHQHDGMEAYVKVDSCPEEPQLRMKNNEEAEDYDDDLTDSEMDVVRFDDDNSPSFIQIRSVAKKHPKTWVHYIAAEEEDWDYAPLVLAPDDRSYKSQYLNNGPQRIGRKYKKVRFMAYTDETFKTREAIQHESGILGPLLYGEVGDTLLIIFKNQASRPYNIYPHGITDVRPLYSRRLPKGVKHLKDFPILPGEIFKYKWTVTVEDGPTKSDPRCLTRYYSSFVNMERDLASGLIGPLLICYKESVDQRGNQIMSDKRNVILFSVFDENRSWYLTENIQRFLPNPAGVQLEDPEFQASNIMHSINGYVFDSLQLSVCLHEVAYWYILSIGAQTDFLSVFFSGYTFKHKMVYEDTLTLFPFSGETVFMSMENPGLWILGCHNSDFRNRGMTALLKVSSCDKNTGDYYEDSYEDISAYLLSKNNAIEPRSFSQNPPVLKRHQREITRTTLQSDQEEIDYDDTISVEMKKEDFDIYDEDENQSPRSFQKKTRHYFIAAVERLWDYGMSSSPHVLRNRAQSGSVPQFKKVVFQEFTDGSFTQPLYRGELNEHLGLLGPYIRAEVEDNIMVTFRNQASRPYSFYSSLISYEEDQRQGAEPRKNFVKPNETKTYFWKVQHHMAPTKDEFDCKAWAYFSDVDLEKDVHSGLIGPLLVCHTNTLNPAHGRQVTVQEFALFFTIFDETKSWYFTENMERNCRAPCNIQMEDPTFKENYRFHAINGYIMDTLPGLVMAQDQRIRWYLLSMGSNENIHSIHFSGHVFTVRKKEEYKMALYNLYPGVFETVEMLPSKAGIWRVECLIGEHLHAGMSTLFLVYSNKCQTPLGMASGHIRDFQITASGQYGQWAPKLARLHYSGSINAWSTKEPFSWIKVDLLAPMIIHGIKTQGARQKFSSLYISQFIIMYSLDGKKWQTYRGNSTGTLMVFFGNVDSSGIKHNIFNPPIIARYIRLHPTHYSIRSTLRMELMGCDLNSCSMPLGMESKAISDAQITASSYFTNMFATWSPSKARLHLQGRSNAWRPQVNNPKEWLQVDFQKTMKVTGVTTQGVKSLLTSMYVKEFLISSSQDGHQWTLFFQNGKVKVFQGNQDSFTPVVNSLDPPLLTRYLRIHPQSWVHQIALRMEVLGCEAQDLY
notes: The entry is the mature protein; mostly a 2 chain molecule; also called BDD-N scFv; PPB 6705
One may read the Kd as the concentration at which binding is half-saturated. The koff is the rate constant with which the complex falls apart. As a reminder, the kon is the rate constant with which the complex forms. For B2, in assay [4], the Kd was 4 nM. The koff in assay [4] came to 0.00329 s⁻¹. Also, in assay [4], the kon stood at 823000 M⁻¹ s⁻¹. Further, the “% bound to Cyno RBC” value in assay [5] was 2.9%; in assay [6], -19.1%; in assay [7], -7.8%; in assay [9], -21.9%; in [11], 0%; in assay [14], -8.7%. Also, the “percentage bound to human RBC” value in [8] worked out at 95.7%; in [10], 95.2%; in assay [12], 76.5%; in assay [13] it was 92.5%; in [15], 95.7%; in [16], 95.8%.

B3: TPP-9049 FVIII-scFv fusion protein (other)
chain: ATRRYYLGAVELSWDYMQSDLGELPVDARFPPRVPKSFPFNTSVVYKKTLFVEFTDHLFNIAKPRPPWMGLLGPTIQAEVYDTVVITLKNMASHPVSLHAVGVSYWKASEGAEYDDQTSQREKEDDKVFPGGSHTYVWQVLKENGPMASDPLCLTYSYLSHVDLVKDLNSGLIGALLVCREGSLAKEKTQTLHKFILLFAVFDEGKSWHSETKNSLMQDRDAASARAWPKMHTVNGYVNRSLPGLIGCHRKSVYWHVIGMGTTPEVHSIFLEGHTFLVRNHRQASLEISPITFLTAQTLLMDLGQFLLFCHISSHQHDGMEAYVKVDSCPEEPQLRMKNNEEAEDYDDDLTDSEMDVVRFDDDNSPSFIQIRSVAKKHPKTWVHYIAAEEEDWDYAPLVLAPDDRSYKSQYLNNGPQRIGRKYKKVRFMAYTDETFKTREAIQHESGILGPLLYGEVGDTLLIIFKNQASRPYNIYPHGITDVRPLYSRRLPKGVKHLKDFPILPGEIFKYKWTVTVEDGPTKSDPRCLTRYYSSFVNMERDLASGLIGPLLICYKESVDQRGNQIMSDKRNVILFSVFDENRSWYLTENIQRFLPNPAGVQLEDPEFQASNIMHSINGYVFDSLQLSVCLHEVAYWYILSIGAQTDFLSVFFSGYTFKHKMVYEDTLTLFPFSGETVFMSMENPGLWILGCHNSDFRNRGMTALLKVSSCDKNTGDYYEDSYEDISAYLLSKNNAIEPRSFSQNPPVLKRHQREITRTTLQSDQEEIDYDDTISVEMKKEDFDIYDEDENQSPRSFQKKTRHYFIAAVERLWDYGMSSSPHVLRNRAQSGSVPQFKKVVFQEFTDGSFTQPLYRGELNEHLGLLGPYIRAEVEDNIMVTFRNQASRPYSFYSSLISYEEDQRQGAEPRKNFVKPNETKTYFWKVQHHMAPTKDEFDCKAWAYFSDVDLEKDVHSGLIGPLLVCHTNTLNPAHGRQVTVQEFALFFTIFDETKSWYFTENMERNCRAPCNIQMEDPTFKENYRFHAINGYIMDTLPGLVMAQDQRIRWYLLSMGSNENIHSIHFSGHVFTVRKKEEYKMALYNLYPGVFETVEMLPSKAGIWRVECLIGEHLHAGMSTLFLVYSNKCQTPLGMASGHIRDFQITASGQYGQWAPKLARLHYSGSINAWSTKEPFSWIKVDLLAPMIIHGIKTQGARQKFSSLYISQFIIMYSLDGKKWQTYRGNSTGTLMVFFGNVDSSGIKHNIFNPPIIARYIRLHPTHYSIRSTLRMELMGCDLNSCSMPLGMESKAISDAQITASSYFTNMFATWSPSKARLHLQGRSNAWRPQVNNPKEWLQVDFQKTMKVTGVTTQGVKSLLTSMYVKEFLISSSQDGHQWTLFFQNGKVKVFQGNQDSFTPVVNSLDPPLLTRYLRIHPQSWVHQIALRMEVLGCEAQDLYGGGSGGGGSGLVPRGSGGGSGGGGSGDIQLTQSPSFLSASVGDRVTITCRASSSVRYIYWFQQKPGKAPKLLIYATSFRQSGVPSRFSGSGSGTEYTLTISSLQPEDFATYYCHQRNSFPYTFGQGTKLEIKGGGGSGGGGSGGGGSGGGGSEVQLVQSGAEVKKPGASVKVSCKASGYTFTTYAIHWVRQAPGQGLEWMGYINPSSGYTRYNPKFKGRVTMTRDKSTSTAYMELRSLRSDDTAVYYCWTGTRDYWGQGTTVTVSS
notes: The entry is the mature protein; mostly a 2 chain molecule; also called BDD-C scFv; PPB 6733
In [4], B3 displayed a Kd of 2.4 nM. The molecule also had a koff in assay [4] of 0.00305 s⁻¹. Further, in assay [4], the kon came to 1.27e+06 M⁻¹ s⁻¹. The “% bound to Cyno RBC” value in assay [5] is 73.8%; in assay [6], 72.2%; in assay [7] it was 62.1%; in assay [9], 48.2%; in [11] it was 28.1%; in assay [14], 67.5%. Further, the “percentage bound to human RBC” value in assay [8] was found to be 80.3%; in assay [10], 64.8%; in assay [12], 24.6%; in assay [13], 48.5%; in assay [15], 72.5%; in assay [16], 77.8%.
